# What was measured:
# CMS5 cells = experiment: Killing effect of puromycin on CMS5 cells (trypan blue staining, microscope); assay type: cell-based; settings: puromycin 5 μg/mL, 24 h of culture
# Method: In order to determine the killing dose of puromycin to CMS5, CMS5 cells were cultured in RPMI1640 (10% FBS, 1% […]) complete media with different concentrations of puromycin. 24 h later, cells were stained with trypan blue and observed under a microscope for mortality to determine the drug concentration for 100% lethality of CMS5 cells as the drug pressure for CMS5-VP1 cell line screening. […] After 24 h of culture, the CMS5 cells digested with trypsin were stained with trypan blue and the lethality of the cells was calculated microscopically to determine the final puromycin drug concentration. […]
# [1] = Particle size by nano particle sizer; assay type: physicochemical
# Method: 5) The VP1 was detected for pentamer formation by Nu-PAGE. The MCV-VP1 particle size was measured using a nano particle sizer.
# 3) Reassembled (also known as self-assembled) recombinant VP1 was named (rVP1), and rVP1 was filtered through a […] needle filter for sterilization, detected for the pentamer structure by Nu-PAGE, and measured for the particle size by a nano particle sizer.
# [2] = system: DTH (delayed type hypersensitivity); experiment: Delayed type hypersensitivity (DTH), foot pad / paw swelling after antigen injection; assay type: in vivo, mice; settings: Example 13; two immunizations; 24 h after injection of rVP1; therapeutic vaccine groups compared with Vac group
# Method: Delayed Type Hypersensitivity (DTH): the mice were immunized with the vaccine, and 7 days after the final immunization, 10 μL of antigen protein (10 μg) was injected into the hindfoot pad on the immunized side (right side) of the mice, and 10 μL of phosphate buffer was injected into the hindfoot pad on the side opposite to the immunized side (left side). The thickness of both hindfoot pads of the mice was measured 24 h and 48 h after DTH with a vernier caliper, and the measurement was performed three times at the same site to take the average. DTH value (mm)=right foot pad thickness−left foot pad thickness.
# On day 7 after the immunization program, mice were injected with 10 μL of PBS or 10 μg of rVP1 (10 μL) at the left and right hind limb paws.
# The paw swelling thickness was calculated for each experimental group according to the formula, and the differences between all vaccine groups were analyzed with GraphPad Prism statistical software.
# [3] = system: anti-VP1 antibody in serum; experiment: VP1-specific antibody titer in serum of immunized mice by ELISA; assay type: in vivo, BALB/c mice; settings: Example 14; antigen adsorbed to Al(OH)3, i.m. days 0 and 14, blood day 28; plate coated with sVP1
# Method: Enzyme-linked immunosorbent assay: on day 21, blood samples were collected from the mice, and the serum was determined for specific antibody titer by ELISA. When the antibody concentration in the mouse serum needs to be semi-quantitatively determined, a standard curve is added on the basis of the conventional ELISA, and the concentration of the antibody in the mouse serum is determined according to the concentration of the standard curve.
# Blood was taken from the fundus of BALB/c mice who have completed the immunization program on day 28 after the initial immunization and left to stand at 4° C. overnight. The blood was centrifuged at 6000 rpm for 10 min to obtain serum. The level of anti-VP1 antibody in serum was determined by ELISA. The specific procedures were as follows: […]
# The optical absorbance values were read at OD450/OD620 nm, and a value of 2.1 times the OD value of the negative control group was taken as a cutoff value. […]
# In order to obtain a large amount of VP1, VP1 expressed under high-temperature induction in a fermentation tank mainly formed inclusion bodies. […] The antigen-specific antibody titer was determined by enzyme-linked immunosorbent assay (ELISA), and the specific procedures were as follows: […]
# Reading: optical absorbance values were read at OD450/OD620. […]
Molecule,"dead CMS5 cells, trypan blue staining (CMS5 cells) [%]",state of the cells observed under a microscope (CMS5 cells),particle size [1],DTH reaction (paw swelling thickness) [2],antigen-specific antibody titer relative to sVP1 [3]
COc1ccc(C[C@H](N)C(=O)N[C@H]2[C@@H](O)[C@H](n3cnc4c(N(C)C)ncnc43)O[C@@H]2CO)cc1 [puromycin],100,died in large numbers,,,
"rVP1: recombinant VP1 from inclusion bodies, disassembled with DTT/EGTA and reassembled under GSSG-GSH condition (protein) MAPKRKASSTCKTPKRQCIPKPGCCPNVASVPKLLVKGGVEVLSVVTGEDSITQIELYLNPRMGVNSPDLPTTSNWYTYTYDLQPKGSSPDQPIKENLPAYSVARVSLPMLNEDITCDTLQMWEAISVKTEVVGISSLINVHYWDMKRVHDYGAGIPVSGVNYHMFAIGGEPLDLQGLVLDYQTEYPKTTNGGPITIETVLGRKMTPKNQGLDPQAKAKLDKDGNYPIEVWCPDPSKNENSRYYGSIQTGSQTPTVLQFSNTLTTVLLDENGVGPLCKGDGLFISCADIVGFLFKTSGKMALHGLPRYFNVTLRKRWVKNPYPVVNLINSLFSNLMPKVSGQPMEGKDNQVEEVRIYEGSEQLPGDPDIVRFLDKFGQEKTVYPKPSVAPAAVTFQSNQQDKGKAPLKGPQKASQKESQTQELHHHHHH",,,115.3 nm,not significant,twice those of sVP1
sVP1: soluble VP1 expressed under low-temperature induction (protein) MAPKRKASSTCKTPKRQCIPKPGCCPNVASVPKLLVKGGVEVLSVVTGEDSITQIELYLNPRMGVNSPDLPTTSNWYTYTYDLQPKGSSPDQPIKENLPAYSVARVSLPMLNEDITCDTLQMWEAISVKTEVVGISSLINVHYWDMKRVHDYGAGIPVSGVNYHMFAIGGEPLDLQGLVLDYQTEYPKTTNGGPITIETVLGRKMTPKNQGLDPQAKAKLDKDGNYPIEVWCPDPSKNENSRYYGSIQTGSQTPTVLQFSNTLTTVLLDENGVGPLCKGDGLFISCADIVGFLFKTSGKMALHGLPRYFNVTLRKRWVKNPYPVVNLINSLFSNLMPKVSGQPMEGKDNQVEEVRIYEGSEQLPGDPDIVRFLDKFGQEKTVYPKPSVAPAAVTFQSNQQDKGKAPLKGPQKASQKESQTQELHHHHHH,,,much higher than that of rVP1,,

# From patent publication US12691168B2, “Vaccine for preventing and treating Merkel cell carcinoma” (priority 2020, dated 2026)
